Measurements published in publication PMC11993163.

Assays:
[1] = target: PfNPM A1 (residues 1-110, up to A1 acidic tract) (Plasmodium falciparum) (UniProt C0H4U4); assay: pull-down
[2] = target: PfNPM A3 (residues 1-170, up to A3 acidic tract) (Plasmodium falciparum) (UniProt C0H4U4); assay: pull-down

assembled H3/H4 tetramer (from UniProt P84233 1-136; P62799 1-103) (complex)
highest NaCl concentration at which the complex was stable [1]: 600 mM NaCl
highest NaCl concentration at which the complex was stable [2]: 600 mM NaCl
